# Assay results as given in US10941182 (Amgen, dated 2021).
# Starred links: 1 amine or outer side, 2 acyl side, 3 side chain; linkers in the order of their positions; H or OH if unused. Non-standard residues stand in square brackets, D forms with d. *: point of attachment. dBip = N[C@H](Cc1ccc(-c2ccccc2)cc1)C(=O)O; Oic = O=C(O)[C@@H]1C[C@@H]2CCCC[C@@H]2N1; Phe(4-Cl) = N[C@@H](Cc1ccc(Cl)cc1)C(=O)O; dPhe(4-Cl) = N[C@H](Cc1ccc(Cl)cc1)C(=O)O; Phe(4-I) = N[C@@H](Cc1ccc(I)cc1)C(=O)O; γGlu = O=C(O)[C@H](CCC(=O)[*:2])N[*:1]; NMeR = CN[C@@H](CCCNC(=N)N)C(=O)O; Tridecanoyl = CCCCCCCCCCCCC(=O)*; hArg = N=C(N)NCCCC[C@H](N)C(=O)O; Cha = N[C@@H](CC1CCCCC1)C(=O)O; NMeL = CN[C@@H](CC(C)C)C(=O)O; Tle = CC(C)(C)[C@H](N)C(=O)O; Nle = CCCC[C@H](N)C(=O)O; Orn = NCCC[C@H](N)C(=O)O; AEEA = NCCOCCOCC(=O)O; BLeu = β-leucine
# B1: Apelin polypeptide SEQ ID NO: 442 (peptide)
# peptide: Tridecanoyl-[γGlu][AEEA][AEEA][Tle]RP[NMeR][Cha]SHKG[Oic][Nle]P[Phe(4-Cl)]-OH
# SMILES: CCCCCCCCCCCCC(=O)N[C@@H](CCC(=O)NCCOCCOCC(=O)NCCOCCOCC(=O)N[C@H](C(=O)N[C@@H](CCCNC(=N)N)C(=O)N1CCC[C@H]1C(=O)N(C)[C@@H](CCCNC(=N)N)C(=O)N[C@@H](CC1CCCCC1)C(=O)N[C@@H](CO)C(=O)N[C@@H](Cc1c[nH]cn1)C(=O)N[C@@H](CCCCN)C(=O)NCC(=O)N1[C@H](C(=O)N[C@@H](CCCC)C(=O)N2CCC[C@H]2C(=O)N[C@@H](Cc2ccc(Cl)cc2)C(=O)O)C[C@@H]2CCCC[C@@H]21)C(C)(C)C)C(=O)O
# B2: Apelin polypeptide SEQ ID NO: 557 (peptide)
# peptide: Tridecanoyl-[γGlu][AEEA][AEEA][Tle][hArg]P[dR][Cha]SHKG[Oic][Nle]P[Phe(4-Cl)]-OH
# SMILES: CCCCCCCCCCCCC(=O)N[C@@H](CCC(=O)NCCOCCOCC(=O)NCCOCCOCC(=O)N[C@H](C(=O)N[C@@H](CCCCNC(=N)N)C(=O)N1CCC[C@H]1C(=O)N[C@H](CCCNC(=N)N)C(=O)N[C@@H](CC1CCCCC1)C(=O)N[C@@H](CO)C(=O)N[C@@H](Cc1c[nH]cn1)C(=O)N[C@@H](CCCCN)C(=O)NCC(=O)N1[C@H](C(=O)N[C@@H](CCCC)C(=O)N2CCC[C@H]2C(=O)N[C@@H](Cc2ccc(Cl)cc2)C(=O)O)C[C@@H]2CCCC[C@@H]21)C(C)(C)C)C(=O)O
# B3: Apelin polypeptide SEQ ID NO: 338 (peptide)
# peptide: Tridecanoyl-[γGlu][AEEA][AEEA][Nle]QRP[hArg][Cha]SHKG[Oic][Nle]P[Phe(4-Cl)]-OH
# SMILES: CCCCCCCCCCCCC(=O)N[C@@H](CCC(=O)NCCOCCOCC(=O)NCCOCCOCC(=O)N[C@@H](CCCC)C(=O)N[C@@H](CCC(N)=O)C(=O)N[C@@H](CCCNC(=N)N)C(=O)N1CCC[C@H]1C(=O)N[C@@H](CCCCNC(=N)N)C(=O)N[C@@H](CC1CCCCC1)C(=O)N[C@@H](CO)C(=O)N[C@@H](Cc1c[nH]cn1)C(=O)N[C@@H](CCCCN)C(=O)NCC(=O)N1[C@H](C(=O)N[C@@H](CCCC)C(=O)N2CCC[C@H]2C(=O)N[C@@H](Cc2ccc(Cl)cc2)C(=O)O)C[C@@H]2CCCC[C@@H]21)C(=O)O
# B4: Apelin polypeptide SEQ ID NO: 314 (peptide)
# peptide: Tridecanoyl-[γGlu][AEEA][AEEA][Nle][dR]Q[hArg]P[dR][NMeL]SHKG[Oic][Phe(4-I)]P[dBip]-OH
# SMILES: CCCCCCCCCCCCC(=O)N[C@@H](CCC(=O)NCCOCCOCC(=O)NCCOCCOCC(=O)N[C@@H](CCCC)C(=O)N[C@H](CCCNC(=N)N)C(=O)N[C@@H](CCC(N)=O)C(=O)N[C@@H](CCCCNC(=N)N)C(=O)N1CCC[C@H]1C(=O)N[C@H](CCCNC(=N)N)C(=O)N(C)[C@@H](CC(C)C)C(=O)N[C@@H](CO)C(=O)N[C@@H](Cc1c[nH]cn1)C(=O)N[C@@H](CCCCN)C(=O)NCC(=O)N1[C@H](C(=O)N[C@@H](Cc2ccc(I)cc2)C(=O)N2CCC[C@H]2C(=O)N[C@H](Cc2ccc(-c3ccccc3)cc2)C(=O)O)C[C@@H]2CCCC[C@@H]21)C(=O)O
# B5: Apelin polypeptide SEQ ID NO: 332 (peptide)
# peptide: Tridecanoyl-[γGlu][AEEA][AEEA][Nle][dR]Q[hArg]P[dR][NMeL]AAKG[Oic][Phe(4-I)]P[dBip]-OH
# SMILES: CCCCCCCCCCCCC(=O)N[C@@H](CCC(=O)NCCOCCOCC(=O)NCCOCCOCC(=O)N[C@@H](CCCC)C(=O)N[C@H](CCCNC(=N)N)C(=O)N[C@@H](CCC(N)=O)C(=O)N[C@@H](CCCCNC(=N)N)C(=O)N1CCC[C@H]1C(=O)N[C@H](CCCNC(=N)N)C(=O)N(C)[C@@H](CC(C)C)C(=O)N[C@@H](C)C(=O)N[C@@H](C)C(=O)N[C@@H](CCCCN)C(=O)NCC(=O)N1[C@H](C(=O)N[C@@H](Cc2ccc(I)cc2)C(=O)N2CCC[C@H]2C(=O)N[C@H](Cc2ccc(-c3ccccc3)cc2)C(=O)O)C[C@@H]2CCCC[C@@H]21)C(=O)O
# B6: Apelin polypeptide SEQ ID NO: 320 (peptide)
# peptide: Tridecanoyl-[γGlu][AEEA][AEEA][Nle][dR]Q[hArg]P[dR][NMeL]AHKG[Oic][Phe(4-I)]P[dBip]-OH
# SMILES: CCCCCCCCCCCCC(=O)N[C@@H](CCC(=O)NCCOCCOCC(=O)NCCOCCOCC(=O)N[C@@H](CCCC)C(=O)N[C@H](CCCNC(=N)N)C(=O)N[C@@H](CCC(N)=O)C(=O)N[C@@H](CCCCNC(=N)N)C(=O)N1CCC[C@H]1C(=O)N[C@H](CCCNC(=N)N)C(=O)N(C)[C@@H](CC(C)C)C(=O)N[C@@H](C)C(=O)N[C@@H](Cc1c[nH]cn1)C(=O)N[C@@H](CCCCN)C(=O)NCC(=O)N1[C@H](C(=O)N[C@@H](Cc2ccc(I)cc2)C(=O)N2CCC[C@H]2C(=O)N[C@H](Cc2ccc(-c3ccccc3)cc2)C(=O)O)C[C@@H]2CCCC[C@@H]21)C(=O)O
# B7: Apelin polypeptide SEQ ID NO: 292 (peptide)
# peptide: Tridecanoyl-[γGlu][AEEA][AEEA][dL][hArg]P[NMeR][Cha]SHKG[Oic][Nle]P[dPhe(4-Cl)]-OH
# SMILES: CCCCCCCCCCCCC(=O)N[C@@H](CCC(=O)NCCOCCOCC(=O)NCCOCCOCC(=O)N[C@H](CC(C)C)C(=O)N[C@@H](CCCCNC(=N)N)C(=O)N1CCC[C@H]1C(=O)N(C)[C@@H](CCCNC(=N)N)C(=O)N[C@@H](CC1CCCCC1)C(=O)N[C@@H](CO)C(=O)N[C@@H](Cc1c[nH]cn1)C(=O)N[C@@H](CCCCN)C(=O)NCC(=O)N1[C@H](C(=O)N[C@@H](CCCC)C(=O)N2CCC[C@H]2C(=O)N[C@H](Cc2ccc(Cl)cc2)C(=O)O)C[C@@H]2CCCC[C@@H]21)C(=O)O
# B8: Apelin polypeptide SEQ ID NO: 326 (peptide)
# peptide: Tridecanoyl-[γGlu][AEEA][AEEA][Nle][dR]Q[hArg]P[dR][NMeL]SAKG[Oic][Phe(4-I)]P[dBip]-OH
# SMILES: CCCCCCCCCCCCC(=O)N[C@@H](CCC(=O)NCCOCCOCC(=O)NCCOCCOCC(=O)N[C@@H](CCCC)C(=O)N[C@H](CCCNC(=N)N)C(=O)N[C@@H](CCC(N)=O)C(=O)N[C@@H](CCCCNC(=N)N)C(=O)N1CCC[C@H]1C(=O)N[C@H](CCCNC(=N)N)C(=O)N(C)[C@@H](CC(C)C)C(=O)N[C@@H](CO)C(=O)N[C@@H](C)C(=O)N[C@@H](CCCCN)C(=O)NCC(=O)N1[C@H](C(=O)N[C@@H](Cc2ccc(I)cc2)C(=O)N2CCC[C@H]2C(=O)N[C@H](Cc2ccc(-c3ccccc3)cc2)C(=O)O)C[C@@H]2CCCC[C@@H]21)C(=O)O
# Target: T1, human APJ receptor (human, UniProt P35414 1-380)
# T1 sequence (looked up): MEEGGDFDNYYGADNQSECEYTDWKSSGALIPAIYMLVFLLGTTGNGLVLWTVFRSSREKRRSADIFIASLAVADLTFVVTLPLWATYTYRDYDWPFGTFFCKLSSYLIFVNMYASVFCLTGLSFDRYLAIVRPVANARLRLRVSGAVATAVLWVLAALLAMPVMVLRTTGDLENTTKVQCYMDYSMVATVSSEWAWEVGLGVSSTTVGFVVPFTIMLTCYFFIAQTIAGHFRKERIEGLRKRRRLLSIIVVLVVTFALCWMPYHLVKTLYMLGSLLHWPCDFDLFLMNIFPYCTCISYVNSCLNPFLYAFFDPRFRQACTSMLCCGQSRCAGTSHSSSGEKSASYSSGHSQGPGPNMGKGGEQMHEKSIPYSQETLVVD
# Experiment: cell-based or functional assay
row,Binder,EC50 Human APJ Receptor (GTPγS assay)
1,B1,2 nM
2,B2,6.12 nM
3,B3,0.56 nM
4,B4,2.77 nM
5,B5,40 nM
6,B6,17.9 nM
7,Tridecanoyl-[γGlu][AEEA][AEEA][Orn]F[hArg][hArg][BLeu][hArg]P[hArg][Cha]SHKG[Oic][Nle]P[Phe(4-Cl)]-OH [Apelin polypeptide SEQ ID NO: 307],0.305 nM
8,B7,5.78 nM
9,B8,14.8 nM

# Target: T2, rat APJ receptor (rat, UniProt Q9JHG3 1-377)
# T2 sequence (looked up): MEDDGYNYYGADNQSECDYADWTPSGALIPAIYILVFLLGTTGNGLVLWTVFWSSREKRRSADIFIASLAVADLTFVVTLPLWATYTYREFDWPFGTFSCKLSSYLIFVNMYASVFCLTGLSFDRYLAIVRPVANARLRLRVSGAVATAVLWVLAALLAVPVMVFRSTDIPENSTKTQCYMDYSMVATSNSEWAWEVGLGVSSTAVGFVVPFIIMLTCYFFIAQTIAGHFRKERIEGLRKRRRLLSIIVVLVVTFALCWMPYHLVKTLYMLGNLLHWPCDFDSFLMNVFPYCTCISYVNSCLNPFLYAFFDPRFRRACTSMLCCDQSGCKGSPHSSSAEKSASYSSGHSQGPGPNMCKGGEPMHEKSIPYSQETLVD
# Experiment: cell-based or functional assay
row,Binder,EC50 Rat APJ Receptor (GTPγS assay)
1,B1,2.16 nM
2,B2,10.4 nM
3,B3,0.766 nM
4,B4,6.81 nM
5,B5,50.5 nM
6,B6,37.7 nM
7,Tridecanoyl-[γGlu][AEEA][AEEA][Orn]F[hArg][hArg][BLeu][hArg]P[hArg][Cha]SHKG[Oic][Nle]P[Phe(4-Cl)]-OH [Apelin polypeptide SEQ ID NO: 307],0.31 nM
8,B7,6.68 nM
9,B8,17.8 nM
